We go through 35 sequences from the Immune Epitope Database (IEDB).

As usually defined, the Kd is the equilibrium constant for the complex coming apart. High values mean lower affinity, low ones higher affinity.

The target in this assay is HLA-A*02:01. The assay is described as follows: IEDB peptide-MHC binding, purified MHC/direct/fluorescence; filed as Kd, often an IC50 or EC50 that approximates it; ≥ and ≤ were set here for values at or beyond the usual limits of such assays. The following applies: source organism: Human immunodeficiency virus 1.
On to RSLYNTVATL, for which the Kd is 10 nM.

With RSLYNTVAVL, the Kd is 5 nM.

Consider KSLFNTVAVL, for which the Kd was found to be 5 nM.

Sequence RSLYNTIAVLY returned a Kd of 5 nM.

The sequence KSLFNTVATLY registered an equilibrium dissociation constant (Kd) of 5 nM.

For KSLYNTIATL, the dissociation constant (Kd) came to 5 nM.

RSLYNTVATLY had a Kd of 10 nM.

Consider SLFNTVATLY, for which the dissociation constant Kd was 5 nM.

Turning to KSLYNTVAVLY, the equilibrium dissociation constant (Kd) turned out to be 5 nM.

RSLYNTIATL returned a dissociation constant (Kd) of 10 nM.

The sequence RSLFNTVATL returned a Kd of 5 nM.

Take SLYNTIAVLY: the Kd was determined as 5 nM.

The sequence SLFNTVAVLY yielded a Kd of 5 nM.

Turning to RSLYNTVAVLY, the Kd worked out at 10 nM.

The sequence RSLYNTIATLY yielded a Kd of 40 nM.

Regarding RSLYNTIAVL, the Kd was 5 nM.

As to KSLYNTIAVL, the Kd is 5 nM.

Regarding RSLFNTVAVL, the Kd turned out to be 10 nM.

Take RSLFNTIATLY: the equilibrium dissociation constant (Kd) worked out at 5 nM.

With KSLFNTVATL, the Kd came to 5 nM.

As for KSLFNTIATL, the Kd amounted to 5 nM.

KSLYNTVATL had a dissociation constant (Kd) of 10 nM.

As to SLFNTIAVLY, the Kd stood at 5 nM.

RSLFNTIAVL came in with an equilibrium dissociation constant (Kd) of 5 nM.

Take RSLFNTVAVLY: the Kd was determined as 5 nM.

In turn, SLFNTIATLY returned a Kd of 5 nM.

As to KSLYNTIATLY, the Kd turned out to be 20 nM.

Take SLYNTVAVLY: the Kd is 5 nM.

RSLFNTIAVLY came in with a Kd of 5 nM.

As to KSLFNTIATLY, the Kd came out at 5 nM.

For KSLFNTIAVL, the Kd worked out at 5 nM.

KSLYNTVATLY yielded a Kd of 5 nM.

Regarding KSLYNTVAVL, the Kd was determined as 5 nM.

For KSLFNTIAVLY, the Kd was 5 nM.

SLYNTIATLY: the Kd was 5 nM.
